Assay results reported in publication PMC10570040.

T1: EnfR T55I (Thermococcus onnurineus NA1, UniProt B6YTS4 1-146, T55I)
T1 sequence: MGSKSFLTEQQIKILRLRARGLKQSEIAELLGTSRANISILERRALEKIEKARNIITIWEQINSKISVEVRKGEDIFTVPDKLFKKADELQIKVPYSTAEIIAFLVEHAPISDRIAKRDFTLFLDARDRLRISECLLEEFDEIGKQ

T2: EnfR wild-type (TON_1525) (Thermococcus onnurineus NA1, UniProt B6YTS4 1-146)
T2 sequence: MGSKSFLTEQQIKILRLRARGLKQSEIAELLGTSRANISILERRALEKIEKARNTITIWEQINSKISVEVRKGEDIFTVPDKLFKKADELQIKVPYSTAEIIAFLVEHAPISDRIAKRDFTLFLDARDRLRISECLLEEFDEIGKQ

T3: EnfR R44A (Thermococcus onnurineus NA1, UniProt B6YTS4 1-146, R44A)
T3 sequence: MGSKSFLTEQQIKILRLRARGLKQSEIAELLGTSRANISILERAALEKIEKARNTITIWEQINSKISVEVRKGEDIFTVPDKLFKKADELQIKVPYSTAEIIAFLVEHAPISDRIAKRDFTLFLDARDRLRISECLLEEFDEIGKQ


Assays:
EnfR T55I = target: T1, EnfR T55I; assay: ITC; 25 C; N = 0.80; EMSA: 10 mM Tris pH 7.4, 200 mM KCl, 2 mM DTT, 0.2 mM EDTA, 37 C 20 min; ITC: 10 mM Tris-HCl pH 7.4, 200 mM KCl, 1 mM TCEP, 0.2 mM EDTA, 25 C; footprint: 20 mM; conditions: protein: recombinant; tags: C-terminal His6, non-cleavable; chain copies: 2; blunt
[1] = target: T2, EnfR wild-type (TON_1525); assay: ITC; 25 C; N = 0.94; EMSA: 10 mM Tris pH 7.4, 200 mM KCl, 2 mM DTT, 0.2 mM EDTA, 37 C 20 min; ITC: 10 mM Tris-HCl pH 7.4, 200 mM KCl, 1 mM TCEP, 0.2 mM EDTA, 25 C; footprint: 20 mM; conditions: protein: recombinant; tags: C-terminal His6, non-cleavable; chain copies: 2; blunt
EnfR R44A = target: T3, EnfR R44A; assay: EMSA; seemed to lose binding; EMSA: 10 mM Tris pH 7.4, 200 mM KCl, 2 mM DTT, 0.2 mM EDTA, 37 C 20 min; ITC: 10 mM Tris-HCl pH 7.4, 200 mM KCl, 1 mM TCEP, 0.2 mM EDTA, 25 C; footprint: 20 mM; conditions: protein: recombinant; tags: C-terminal His6, non-cleavable; chain copies: 2; label: 5'-Cy5; blunt

Binder | Kd (EnfR T55I) [nM] | Kd [1] [nM] | binding result (EnfR R44A)
36-bp target, unlabelled (ITC) (dsDNA) DNA 1: CCATCTTAAAATCTTTTTGTTTACATTATACGAGGT DNA 2: ACCTCGTATAATGTAAACAAAAAGATTTTAAGATGG | 948 ± 130 | 61.8 ± 20.5 | 
36-bp target, Cy5 (dsDNA) DNA 1: CCATCTTAAAATCTTTTTGTTTACATTATACGAGGT DNA 2: ACCTCGTATAATGTAAACAAAAAGATTTTAAGATGG |  |  | no binding
